Measured values as given in patent publication US20250101127A1 (CYRON THERAPEUTICS, published 2025).
Substitutions are numbered along the chain they refer to.

B1: humanized MP1 antibody VH8/VL2 (antibody, V domains shown)
VH: QVQLVESGGGVVQPGRSLRLSCAASGITFSSYWMNWVRQAPGKGLEWVAQIRNKPYNYEKYYAQSVKGRFTISRDDSKSTLYLQMSSLRAEDTAVYYCAWAMITSDGYAMDYWGQGTLVTVSS
VL: DIVMTQSPDSLAVSLGERATISCKSSQSVLLSSNQKNYLAWYQQKPGQPPKLLIYWASTRESGVPDRFSGSGSGTEFTLTISSLQAEDVAVYYCQQSFSYPLTFGQGTKLEIK
notes: tested as ExpiCHO-S culture solution
B2: humanized MP1 antibody VH8/VL4 (antibody, V domains shown)
VH: B1 VH
VL: EIVMTQSPGTLSLSPGERATLSCRSSQSLLLSSNQKNYLAWYQQKPGQAPRLLIYWASTRESGIPDRFSGSGSGTDFTLTISRVEPEDFAVYYCQQCFSYPLTFGQGTKLEIK
notes: as for B1
B3: humanized MP1 antibody VH1/VL1 (antibody, V domains shown)
VH: EVKVVESGGGLVQPGRSLRLSCTASGITFSDYWMNWVRQAPGKGLEWVGQIRNKPYNYETYYSQSVKGRFTISRDDSKSIAYLQMSSLKTEDTAVYYCTWAMITSDGYAMDYWGQGTLVTVSS
VL: B1 VL with V29L, L84V, S97C
notes: as for B1
B4: humanized MP1 antibody VH7/VL5 (antibody, V domains shown)
VH: B1 VH with Q3K, L4V, S31D, K60T, A63S, Q64N, L81V, A99T
VL: B2 VL with M4L, S25A, L29V, T59S, S62T, V84L, C97S
notes: as for B1
B5: humanized MP1 antibody VH4/VL2 (antibody, V domains shown)
VH: B3 VH with R16G, T23A, G49A, Q64N, S77A, I80S, A81V, K89R, T90A
VL: B1 VL
notes: as for B1
B6: humanized MP1 antibody VH1/VL2 (antibody, V domains shown)
VH: B3 VH
VL: B1 VL
notes: as for B1
B7: humanized MP1 antibody VH8/VL8 (antibody, V domains shown)
VH: B1 VH
VL: DIVMTQSPLSLPVTPGEPASISCRSSQSLLLSSNQKNYLAWYLQKPGQSPQLLIYWGSTRESGVPDRFSGSGSGTDFTLKISRVEAEDVGVYYCQQSFSYPLTFGQGTKLEIK
notes: as for B1
B8: humanized MP1 antibody VH9/VL2 (antibody, V domains shown)
VH: B1 VH with I27F, N35H, Q50V, N53Y, N57G, Y58S, M110F
VL: B1 VL
notes: as for B1
B9: humanized MP1 antibody VH8/VL1 (antibody, V domains shown)
VH: B1 VH
VL: B1 VL with V29L, L84V, S97C
notes: as for B1
B10: humanized MP1 antibody VH7/VL3 (antibody, V domains shown)
VH: B1 VH with Q3K, L4V, S31D, K60T, A63S, Q64N, L81V, A99T
VL: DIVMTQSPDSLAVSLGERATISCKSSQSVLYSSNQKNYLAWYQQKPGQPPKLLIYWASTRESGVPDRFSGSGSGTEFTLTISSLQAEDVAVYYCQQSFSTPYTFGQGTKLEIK
notes: as for B1
B11: humanized MP1 antibody VH8/VL3 (antibody, V domains shown)
VH: B1 VH
VL: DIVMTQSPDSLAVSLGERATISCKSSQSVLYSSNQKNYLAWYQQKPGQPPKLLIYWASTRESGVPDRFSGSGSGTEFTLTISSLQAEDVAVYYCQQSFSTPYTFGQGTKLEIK
notes: as for B1
B12: humanized MP1 antibody VH4/VL4 (antibody, V domains shown)
VH: B3 VH with R16G, T23A, G49A, Q64N, S77A, I80S, A81V, K89R, T90A
VL: B2 VL
notes: as for B1
B13: humanized MP1 antibody VH1/VL5 (antibody, V domains shown)
VH: B3 VH
VL: B2 VL with M4L, S25A, L29V, T59S, S62T, V84L, C97S
notes: as for B1
B14: humanized MP1 antibody VH7/VL4 (antibody, V domains shown)
VH: B1 VH with Q3K, L4V, S31D, K60T, A63S, Q64N, L81V, A99T
VL: B2 VL
notes: as for B1
B15: humanized MP1 antibody VH8/VL6 (antibody, V domains shown)
VH: B1 VH
VL: EIVLTQSPGTLSLSPGERATLSCRASQSVLLSSSQKNYLAWYQQKPGQAPRLLIYWASSRATGIPDRFSGSGSGTDFTLTISRLEPEDFAVYYCQQSFSSPYTFGQGTKLEIK
notes: as for B1
B16: humanized MP1 antibody VH4/VL5 (antibody, V domains shown)
VH: B3 VH with R16G, T23A, G49A, Q64N, S77A, I80S, A81V, K89R, T90A
VL: B15 VL with S34N, A61E, S100Y, Y102L
notes: as for B1
B17: humanized MP1 antibody VH8/VL5 (antibody, V domains shown)
VH: B1 VH
VL: B15 VL with S34N, A61E, S100Y, Y102L
notes: as for B1
B18: humanized MP1 antibody VH1/VL4 (antibody, V domains shown)
VH: B3 VH
VL: B2 VL
notes: as for B1
B19: humanized MP1 antibody VH4/VL8 (antibody, V domains shown)
VH: B3 VH with R16G, T23A, G49A, Q64N, S77A, I80S, A81V, K89R, T90A
VL: B7 VL
notes: as for B1
B20: humanized MP1 antibody VH4/VL7 (antibody, V domains shown)
VH: B3 VH with R16G, T23A, G49A, Q64N, S77A, I80S, A81V, K89R, T90A
VL: B7 VL with G57A, S97C
notes: as for B1
B21: MP1 monoclonal antibody (antibody, V domains shown)
VH: EVKVDETGGGLVQPGRPMKLSCVVSGITFSDYWMNWVRQSPEKGLEWVAQIRNKPYNYETYYSNSVKGRFTISRDDSKSSVYLQMNNLRAEDMGIYYCTWAMITSDGYAMDYWGQGTSVTVSS
VL: DIVMSQSPSSLAVSVGEKVTLICKSSQSLLLSSNQKNYLAWYQQKPGQSPKLLIYWASTRESGVPDRFTGSGSGTDFTLTINSVKAEDLAVYYCQQCFSYPLTFGAGTKLELK
notes: also called mouse antibody MP1; MP1 Ab

Target: T1, MUC1 (Mucin-1) as expressed by human cancer cell lines (human, UniProt P15941 24-1255)
T1 construct: whole, on cells; Endogenous antigen on the cell surface (flow cytometry) or in cell lysates (immunoprecipitation, western blot); also called MUC1 antigen; antigen recognized by the MP1 monoclonal antibody
T1 sequence (P15941 24-1255): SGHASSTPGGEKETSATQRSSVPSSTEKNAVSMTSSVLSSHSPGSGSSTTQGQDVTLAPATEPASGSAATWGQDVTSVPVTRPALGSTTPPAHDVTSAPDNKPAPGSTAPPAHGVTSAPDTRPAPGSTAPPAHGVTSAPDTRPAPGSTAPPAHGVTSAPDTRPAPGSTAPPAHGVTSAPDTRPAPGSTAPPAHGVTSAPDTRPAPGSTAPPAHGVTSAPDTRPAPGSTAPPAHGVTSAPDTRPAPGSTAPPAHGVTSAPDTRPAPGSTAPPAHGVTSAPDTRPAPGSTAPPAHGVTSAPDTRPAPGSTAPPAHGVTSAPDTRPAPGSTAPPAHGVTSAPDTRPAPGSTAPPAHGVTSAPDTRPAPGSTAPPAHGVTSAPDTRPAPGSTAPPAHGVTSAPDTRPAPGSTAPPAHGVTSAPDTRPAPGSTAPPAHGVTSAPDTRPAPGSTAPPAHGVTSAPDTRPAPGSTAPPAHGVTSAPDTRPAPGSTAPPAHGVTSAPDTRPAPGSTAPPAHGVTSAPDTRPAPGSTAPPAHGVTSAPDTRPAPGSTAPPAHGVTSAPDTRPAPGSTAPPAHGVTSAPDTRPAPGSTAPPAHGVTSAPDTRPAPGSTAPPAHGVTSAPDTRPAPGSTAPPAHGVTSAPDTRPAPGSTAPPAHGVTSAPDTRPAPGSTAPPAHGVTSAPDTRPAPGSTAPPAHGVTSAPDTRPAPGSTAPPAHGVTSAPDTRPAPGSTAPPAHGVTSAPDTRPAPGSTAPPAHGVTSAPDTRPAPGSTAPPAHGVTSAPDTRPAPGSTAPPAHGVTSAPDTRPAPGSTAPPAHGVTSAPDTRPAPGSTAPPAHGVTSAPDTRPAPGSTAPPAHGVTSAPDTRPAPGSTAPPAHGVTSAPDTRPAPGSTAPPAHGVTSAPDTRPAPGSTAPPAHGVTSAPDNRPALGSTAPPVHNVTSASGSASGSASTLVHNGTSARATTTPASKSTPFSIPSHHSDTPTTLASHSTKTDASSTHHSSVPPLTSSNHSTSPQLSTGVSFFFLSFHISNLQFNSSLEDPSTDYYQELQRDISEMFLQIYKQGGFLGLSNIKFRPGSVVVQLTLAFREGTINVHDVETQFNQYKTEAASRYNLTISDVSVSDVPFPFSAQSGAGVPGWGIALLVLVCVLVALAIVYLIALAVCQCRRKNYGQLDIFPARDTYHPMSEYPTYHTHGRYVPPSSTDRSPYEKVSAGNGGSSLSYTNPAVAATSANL
Test: flow cytometry, Capan-2 cells stained with transient-expression culture solution; positive rate against the negative control

First: B1
Second: B2
The “Capan-2 cell surface binding (%)” value of the first is lower: 11.4% for the first, 15.6% for the second.

First: B3
Second: B4
The “Capan-2 cell surface binding (%)” value of the first is lower: 7.95% for the first, 10.2% for the second.

First: B5
Second: B6
The “Capan-2 cell surface binding (%)” value of the first is lower: 7.2% for the first, 13.5% for the second.

Going from B7 to B8, the “Capan-2 cell surface binding (%)” value falls from 7.16% to 7.04%.

Going from B9 to B10, the “Capan-2 cell surface binding (%)” value rises from 6.65% to 11.5%.

Going from B11 to B12, the “Capan-2 cell surface binding (%)” value falls from 28.5% to 18.1%.

Compared with B13, B14 is lower in “Capan-2 cell surface binding (%)” value: 27.2% for the first, 12.7% for the second.

Compared with B15, B16 is higher in “Capan-2 cell surface binding (%)” value: 9.97% for the first, 16.9% for the second.

Going from B17 to B18, the “Capan-2 cell surface binding (%)” value rises from 6.61% to 15.8%.

Going from B19 to B20, the “Capan-2 cell surface binding (%)” value falls from 11.4% to 11%.

Target: T1, MUC1 (Mucin-1) as expressed by human …
Test: flow cytometry, SiHa cells; grade = percent MP1 positive cells (+: 20-30%)
Procedure: The MP1 monoclonal antibody of the present invention was added to the cultured various cancer cells, respectively, and they were reacted at 4° C. for 30 minutes and then washed with PBS, and FITC-conjugated goat anti mouse IgG (Jackson ImmunoResearch, USA) was added and they were cultured at 4° C. for 15 minutes. They were washed with PBS again, and then were analyzed with FACS caliber (Becton Dickinson, USA) to confirm the reactivity of the MP1 antibody in various solid cancer cell lines (Table 9).

B21: binds.
